Measurements: the domain aggregation screens of Martell et al. (2025)

Assay: soluble fraction after stress (log2 fold change); higher = more stays soluble; pooled small domains, quantitative proteomics
Conditions: stress: 75 degC
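Also: 20 min heating vs room temperature control held 20 min.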

Sequence: HMNELIGVEQLQDLREAIADHGFAEQRVLNWLYQATKGQVSRLEQLPLPMLTTLHKKLGQWADAEAAASSA
- soluble fraction (log2): 0.3

Sequence: HMNELVEATITTQTGRLDKVLTTIFPQYSRSQIQQLLEQGNILVNETLQKGKYKVKAGDKISLTEPAIKE
- soluble fraction (log2): 0.331

Sequence: HMNEMSDTITRLLDAAETGIRLRGYHAVSFRDLAEELGIKSSSVHYYFRQKEDLGLAVVERY
- soluble fraction (log2): 0.000622

Sequence: HMNENDPRVIKTRRLLLDSFVVLVRKKDFTSISVKDITDSAQVNRATFYAHFQDKYDILEYMVID
- soluble fraction (log2): 0.0912

Sequence: HMNENNFIVAMRERLAQFIETSGTSQSRIAKELGVSKSTVSLFLGGTYGGNNQELARNLEQLLSMGAARR
- soluble fraction (log2): -1.45

Sequence: HMNEPMITEVKRINYGSIKEIAKNLDVFKGKNGTVIIDERTNTLILTDLSENIEKMLWSIEITD
- soluble fraction (log2): -0.927

Sequence: HMNERTKIPLRKIEIGQAVYVDTLEKVGTVIDIQGKQFKVDLAGLPITVAARNLFYPLPQEAKP
- soluble fraction (log2): -0.736

Sequence: HMNESADMPDVVNMSLEAAKSQLEGMGLKVKVENVEDDSVEENHVIKTSPVSGEKVKLGTTVTLTVSKGR
- soluble fraction (log2): -0.116

Sequence: HMNESEALIARIENLPPIEDLTEKHAEEVKALMTVYSKLKMSDRILVTNYGVLKKDFDALVKKGFLTNED
- soluble fraction (log2): -0.321

Sequence: HMNETHANKVYNFLKKKKKPLSAYEILKELASEGISAPTTIYRALNKLVSNGLIHKIESLNAWTV
- soluble fraction (log2): 0.251

Sequence: HMNETLKQIRINALQYSEKDMATKLGLPLSEYKEIENDKPLNFTLLIRLSQAVGKTIDDLLNAQ
- soluble fraction (log2): -0.95

Sequence: HMNEVETWSVQADGATGRIDKWLAEQNEWSRSQVQEWLKAGRVEVDGRVVKPNYKLSGTESIAVHIPEAV
- soluble fraction (log2): -0.244

Sequence: HMNEWVSVEERLPTDERPVLAFIGYADTMNGFITTSYYFRFDPDPHWLGEGLIPVGLKTLFWMPLPAP
- soluble fraction (log2): 0.277

Sequence: HMNEYSLVPDIYGMTYDDALSSLRNVGLDGRLALASTNEDLANADTRVVWQSKEAGSIIDKGSNVMFVID
- soluble fraction (log2): -0.01

Sequence: HMNFAERIKELRKEKGITQIDLAEAVGLSKGTVAMWEVDKREANFDTLNKLSDYFQVSIDYLLGRSNDRS
- soluble fraction (log2): -0.0785

Sequence: HMNFDVETGLPLDSRLVVSGLIQRDGINSLKRYEGMIVYVESEAKNYQLVGGISNTDWAELS
- soluble fraction (log2): -1.35

Sequence: HMNFGEVLQTKRKSMGLTQEDLADKLFVSSETISNWETNKTTPDIDNVIRISQLFDISLNNLLL
- soluble fraction (log2): -0.415

Sequence: HMNFIPGEKINLKIVQEGKEKNQGVGYLSDGTMVIVENGSQKLGQDVEVVVIKNIQSSAGKIVFGDISK
- soluble fraction (log2): 0.158

Sequence: HMNFSRQREIIYEQVRNFPVHPTAEEVYRALKNDNPNLSLGTVYRNLNQLSEAGMLLKIPIADGSDRFDGR
- soluble fraction (log2): -0.655

Sequence: HMNFTETENRIYEEILKNVKQHKKKTVVQIAEKVDVAPSYVIKVAKKLGYSGLNEMWYSLSGIY
- soluble fraction (log2): -0.916

Sequence: HMNFTMERLYTKELTSEDIDEIKKELNSMGYTEGVEFNIIKGDKTSFIMAERQLKAKMLSHLSDLGLPRGA
- soluble fraction (log2): -0.245

Sequence: HMNGAAAEQARKQLMTALKASEFIAQDKLDEWLDALALPQEKRSAIIDAVDELDYEEAISELEN
- soluble fraction (log2): 0.287

Sequence: HMNGDWISARQEYYIRGLWDLASRAKDEASLQAMLQRIAGVTQIEWISKEKATKVILALRDIAKK
- soluble fraction (log2): -1.6

Sequence: HMNGELSQRQWQILRLIAQGLSNEQMARQLFVAPSTIKTHINHLYAKLGVRTRAEAQAIARQKLMA
- soluble fraction (log2): -1.23

Sequence: HMNGIFEYSDAKKVPSLVEIENAYRRARVNGAEKFAVIINGEYFGYNPQKRGIYKLNDGEYQIL
- soluble fraction (log2): -0.428

Sequence: HMNGKPDMTPIPAGSRNNDLHAWAYGRLLNHPDNAEAIRRDLFERGQTSGLKESELETIWQSIRRQLGGD
- soluble fraction (log2): 0.44

Sequence: HMNGKTIEVPDITEKSIAEAQLILNQKKLRYNVVDSTRFDPAYLPFSVLTQEPEAGDEVKKNRTIYITLNP
- soluble fraction (log2): -0.183

Sequence: HMNGLDSVLRNWARQTLASGGENLLGDLTDHVTRLIISEALIMTGGNRTRAAELLGLSRPTLLAKMDKLNL
- soluble fraction (log2): -2.92

Sequence: HMNGPTPEEKLAVVNAEFVRQYGDEYEELELEGEELEEYYQKALNKEDFEYDIPHLPGWDEP
- soluble fraction (log2): -0.174

Sequence: HMNHHEIIMKNIDTLLKEKNISISKLEKSLGISNGYISRLRNGKYNFSLDLLLKLAKKFKISIDYLLTDFD
- soluble fraction (log2): -0.317

Sequence: HMNHNPSIARKISREIKRGAPPESLLNLARTVNDSYYRSLSFVSIAYSIKGKKSKELFEEAISNLT
- soluble fraction (log2): -0.107

Sequence: HMNHTIEENDRVLILDPRGKKYLITVTNRVFHTNLGKLDISELIGKNYGDKIKSHMGKNFSILKPNLIDYI
- soluble fraction (log2): -0.0314

Sequence: HMNIAEIGQKVAQQRVALGISQERLAKLSDLSRSTIHHLEHGTLHEIGAAKLFKLLSLLDIQLK
- soluble fraction (log2): -2.07

Sequence: HMNIDQAFISDLERMIMPDISKYELMDIISIMENSGFTIKVEGTGNEVRQVIKPGSKLKKGQKIKIKL
- soluble fraction (log2): -2.03

Sequence: HMNIEIIEVQEESTPSEISKIISTESTKIIEDLLNLGVMASLETPLKNQDIEKLLEGYGYIVDIKP
- soluble fraction (log2): 0.0251

Sequence: HMNIGEKIKKIRTQQNKSTYELADIINKNGFKISQSAISKIENGRKKIDIETLEEIAKALDIEVDLLIT
- soluble fraction (log2): -0.153

Sequence: HMNIGIVSLAAVPMRKEPSDRAEMVNQILFGETFDVLEEQEKWTLVQLHHDAYQGWIDRKQWDYASGIAD
- soluble fraction (log2): -1.33

Sequence: HMNIIHNPSKNFIESDLNDLKEGMEIEHKKFGYGLIKSIDKTQNHQKAVVNFKLVGEKTLLLSFARLRIV
- soluble fraction (log2): -3.15

Sequence: HMNIILFLDELHRLLSDLPPEERNQAIKYYEDYFEDAGPENEQAILKELGSPQELANQIKATT
- soluble fraction (log2): -0.94

Sequence: HMNIIMLGEFIKEQRIKRKMTQEYLASELGISRPTYSQIELGTRELTIPEARKMAAIFNISLEDFLAEKE
- soluble fraction (log2): -2.35

Sequence: HMNIMNINQALNVLNLKGTVSKEELAKAYKKMAIKYHPDRNPTGVEMMKVINSAYEFLKGLNLEEIKH
- soluble fraction (log2): 0.0759

Sequence: HMNINLNVGKRLKSIRQNKELSLDEVSNLTNVSKPALAQIERGASSPTINTLWKISKGLKVPLSYFLQE
- soluble fraction (log2): -0.713

Sequence: HMNINVRNTGIKAVENNIINLSSDQRTFTWASNDRKLITVPFDENPYSALAAWFKTDEGIEVYQTIEKKL
- soluble fraction (log2): -0.0488

Sequence: HMNIWNEWAFKKWIESDEYTGPDMTDFGHRTLVDEEFSKQYKEQMSLFKERVLTDDEFSAKYGDL
- soluble fraction (log2): -0.811

Sequence: HMNKEDIASNEKLLGLLNHMSKVLKDIDFIKDDRPMIVRKINHIFKKATLSEEEINILRGVLSAIENHS
- soluble fraction (log2): -1.46

Sequence: HMNKEKLLEMFESMSIIIVQSLEEKEQTEDRIETELFNEAKTPRYSTLTKQDIQSVIRNILITVGV
- soluble fraction (log2): -1.76

Sequence: HMNKELVVPDLTDMRVKDAEFEAHQVGMRTEIVDSVYVRRLKRGYVYKQNPVPGSKVKKGRRIALTINAV
- soluble fraction (log2): 0.212

Sequence: HMNKETYIDALERKLWDRLDPDQLRDIISYYKDYFAMEAAKGISEEETIRKLGDPALLAKSILAAE
- soluble fraction (log2): -0.332

Sequence: HMNKEVDLPNFVGMTKENAQAQADKIKIKLEFEEEYSSDVEEGKIISQNPEYKENYKIKEKSTVSLKI
- soluble fraction (log2): 0.312

Sequence: HMNKFKVNERVRVIATGEIGIVKGREILPVEGSKRVNIEYLVKVGNGFSNWKAFSKKELEPVR
- soluble fraction (log2): -1.88
